Key:
fibrinogen αC domains = target: T1, fibrinogen αC domains (Homo sapiens, UniProt P02671); conditions: Tsurupa and Medved 2001; cited from earlier work
T1 sequence (P02671 240-629 limits assumed): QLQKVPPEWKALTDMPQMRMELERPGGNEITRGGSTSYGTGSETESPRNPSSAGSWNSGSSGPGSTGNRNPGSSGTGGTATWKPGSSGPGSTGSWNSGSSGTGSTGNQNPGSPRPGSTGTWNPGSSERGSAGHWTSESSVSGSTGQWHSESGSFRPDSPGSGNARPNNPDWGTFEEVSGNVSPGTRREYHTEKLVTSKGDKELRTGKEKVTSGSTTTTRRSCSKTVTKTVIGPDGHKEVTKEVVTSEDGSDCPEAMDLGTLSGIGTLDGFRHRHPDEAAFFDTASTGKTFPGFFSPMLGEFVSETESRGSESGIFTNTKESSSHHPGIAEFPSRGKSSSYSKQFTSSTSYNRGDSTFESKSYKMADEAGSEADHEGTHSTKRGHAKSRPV

[1] = tested on: whole porcine blood clots; assay: In vitro thrombolysis, percent clot mass loss; conditions: 1 MHz CW, 2 W/cm^2, 2 min vs. no ultrasound
Description: Whole porcine blood clots were used to evaluate thrombolysis. Blood was obtained from non-heparinized Yucatan miniswine. The miniswine were 6-8 weeks old and weighed 28.5±6.5 lb. Baseline blood analysis data, including complete blood count, prothrombin time, activated partial thromboplastin time, D-dimer, and fibrinogen were obtained to ensure normal clotting parameters. Whole blood clots were made by aliquoting 1.5 ml fresh porcine blood into 1.3-cm inner diameter vacutainer tubes; the tubes were incubated in a 37° C. water bath for 3 h. The clots were then stored at 4° C. until use, which ensured complete clot maturation and retraction. This type of clot is fairly similar to physiologic venous clots. Most miniswine used in this study were slightly anemic (hematocrit of 27.8±3.0%). Only donors with values of <250 ng/ml for the D-dimer test, <15 s for prothrombin time, <18 s for activated partial thromboplastin time, and <300 mg/dl fibrinogen concentration were considered acceptable. The resulting clots were dark red, cylindrical, and weighed 0.47±0.11 g. All unused clots were discarded after 2 weeks.
Whole porcine blood clots were blotted gently and weighed using an analytical balance. […]
Porcine clots were treated with 1 MHz continuous wave (CW) ultrasound with an intensity of 2 W/cm^2, for 2 min (Sonitron 1000; Rich-Mar). The calculated peak negative acoustic pressure output was 0.12 MPa. […]

## tPA: Recombinant tissue-plasminogen activator (Activase®, Genentech Inc.), used as the thrombolytic agent [reference compound]
Fibrinogen αC domains
  Kd: 33 ± 5 nM
[1]
  effect of ultrasound exposure on thrombolysis: no significant augmentation of thrombolysis

From US9814672B2, “Echogenic vehicle for clinical delivery of plasminogen activator and other fibrin-binding therapeutics to thrombi” (priority 2007, dated 2017)
